Assay results: patent US20100068208A1, “Degranulation inhibitor” (priority 2005, published 2010)
Where no end group is shown, it is not given here.

T1: human TGR12 (Homo sapiens, UniProt Q96LB1)
T1 construct: expressed in transfected cells
T1 sequence (Q96LB1 1-330): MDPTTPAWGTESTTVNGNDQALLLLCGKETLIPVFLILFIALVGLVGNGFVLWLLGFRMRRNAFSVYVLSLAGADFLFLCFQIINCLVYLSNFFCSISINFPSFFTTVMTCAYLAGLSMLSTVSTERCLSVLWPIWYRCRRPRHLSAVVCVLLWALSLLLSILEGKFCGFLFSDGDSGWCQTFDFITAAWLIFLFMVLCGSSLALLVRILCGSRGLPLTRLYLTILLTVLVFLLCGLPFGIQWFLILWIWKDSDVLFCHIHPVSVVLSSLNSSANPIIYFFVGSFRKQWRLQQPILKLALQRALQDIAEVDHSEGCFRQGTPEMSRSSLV

T2: human TGR12 (untagged) (human, UniProt Q96LB1 1-330)
T2 sequence: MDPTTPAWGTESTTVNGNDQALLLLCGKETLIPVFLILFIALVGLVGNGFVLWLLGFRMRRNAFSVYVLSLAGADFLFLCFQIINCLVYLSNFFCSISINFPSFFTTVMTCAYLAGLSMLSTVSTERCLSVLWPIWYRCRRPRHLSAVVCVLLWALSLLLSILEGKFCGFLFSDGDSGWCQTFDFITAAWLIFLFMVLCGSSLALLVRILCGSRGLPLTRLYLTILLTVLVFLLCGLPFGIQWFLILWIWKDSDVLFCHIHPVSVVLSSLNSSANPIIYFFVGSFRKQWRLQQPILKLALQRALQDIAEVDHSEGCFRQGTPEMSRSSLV

T3: TGR12-GFP (fused protein of human TGR12 and GFP, encoded by the DNA of SEQ ID NO: 31), stably expressed on … (human, UniProt Q96LB1 1-330)
T3 sequence: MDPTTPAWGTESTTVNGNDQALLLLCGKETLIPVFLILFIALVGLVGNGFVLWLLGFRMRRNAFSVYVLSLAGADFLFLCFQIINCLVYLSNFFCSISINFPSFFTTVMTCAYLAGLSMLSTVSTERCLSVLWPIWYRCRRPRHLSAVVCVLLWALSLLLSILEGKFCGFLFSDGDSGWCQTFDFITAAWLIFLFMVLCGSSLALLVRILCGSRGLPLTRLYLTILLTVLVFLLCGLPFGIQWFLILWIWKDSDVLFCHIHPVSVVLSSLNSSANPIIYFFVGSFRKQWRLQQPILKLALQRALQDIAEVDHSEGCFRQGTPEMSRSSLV

T4: TGR12-GFP (fused protein of human TGR12 and GFP, encoded by the DNA of SEQ ID NO: 45), stably expressed on … (human, UniProt Q96LB1 1-330)
T4 construct: also called TGR12-GFP expression CHO cell line; not shown: GFP (Wako Pure Chemical) fused after the C-terminus of TGR12
T4 sequence: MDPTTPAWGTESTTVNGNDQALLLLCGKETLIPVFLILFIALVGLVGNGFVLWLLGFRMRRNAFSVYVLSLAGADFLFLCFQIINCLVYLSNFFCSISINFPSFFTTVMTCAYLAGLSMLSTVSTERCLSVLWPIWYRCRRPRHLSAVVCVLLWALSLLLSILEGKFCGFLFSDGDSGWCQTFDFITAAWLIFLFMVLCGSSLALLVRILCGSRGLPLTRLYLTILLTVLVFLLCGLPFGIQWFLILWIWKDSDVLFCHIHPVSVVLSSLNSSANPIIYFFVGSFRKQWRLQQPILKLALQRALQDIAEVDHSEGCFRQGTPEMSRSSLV

B1: human VIP (vasoactive intestinal polypeptide) (peptide, UniProt P01282 125-152, looked up)
peptide: HSDAVFTDNYTRLRKQMAVKKYLNSILN
modifications: not fully specified; ends and bridges not checked
notes: domain: VIP; also called vasoactive intestinal peptide

Experiments:
human TGR12 = molecular target: T1, human TGR12; experiment: MAPK (ERK1/2) activation in human TGR12-expressed CHO cells (western blotting); assay type: cell-based; settings: CHO-TGR12, PTX 0.1 μg/mL 4 hours before the assay
Description: CHO/dhfr^− cells (hereinafter CHO) were incubated in α-MEM (Invitrogen) containing 10% fetal calf serum. […] CHO-TGR12 was incubated in nucleic acid-free α-MEM (Invitrogen) containing 10% dialyzed fetal calf serum.
The cells were prepared as follows. […] After centrifugation, the deposited cells were suspended in the medium at 2×10^5 cells/ml and 1 mL each was plated in a 12-well cell culture dish. After incubation overnight in a CO2 incubator, the medium was aspirated and washed with PBS. […] Pertussis toxin (hereinafter PTX) was added at a final concentration of 0.1 μg/mL 4 hours before the assay.
Activation of the cells was performed as follows. The medium was aspirated and washed with PBS.
Detection by SDS-PAGE and western blotting was performed as follows. After resolving on a 10% Bis-Tris gel (Invitrogen), the proteins were transferred onto Immune-Blot PVDF membrane (BIO-RAD). The membrane was blocked in Block Ace (Dainippon Pharmaceutical), incubated at room temperature for an hour using a primary antibody (phospho-p42/p44 MAP kinase (Thr202/Thr204) antibody (CST) or p42/p44 MAP kinase antibody (CST)) and then incubated at room temperature for an hour using a secondary antibody (anti-rabbit IgG (CST)). The membrane after the antibody reaction was visualized by chemiluminescence with ECL PLUS (Amersham Biosciences), followed by detection and image analysis using LAS1000 (FUJI FILM).

human TGR12 (untagged) = molecular target: T2, human TGR12 (untagged); experiment: cell-based or functional assay
[1] = molecular target: T3, TGR12-GFP (fused protein of human TGR12 …); experiment: cell-based or functional assay
[2] = molecular target: T4, TGR12-GFP (fused protein of human TGR12 …); experiment: competition with 200 pM [125I]-rCST14 (Y0) on CHO-TGR12GFP cells, Hill plot
Description: The binding assay using CHO-TGR12GFP was performed as follows. […] After incubation overnight, the cells were washed 3 times with ice-chilled assay buffer (MEM-α, 20 mM HEPES (pH 7.4), 0.05% BSA) and 250 μL of the assay buffer was added thereto. […] After washing 3 times with 500 μL of the assay buffer, the cells were lysed in 250 μL of 0.5N NaOH and the lysate was recovered for measurement of the radioactivity.
Based on the above, non-specific binding was estimated as the activity of 10 μM rat cortistatin-14 and the IC₅₀ value of each peptide was obtained from Hill plot analysis.

Molecule	EC50 in the degranulation on LAD 2 (human TGR12 (untagged))	degranulation of LAD 2 (beta-hexosaminidase release, % of total) at 10 nM (human TGR12 (untagged))	degranulation of LAD 2 (beta-hexosaminidase release, % of total) at 30 nM (human TGR12 (untagged))	degranulation of LAD 2 (beta-hexosaminidase release, % of total) at 100 nM (human TGR12 (untagged))	degranulation of LAD 2 (beta-hexosaminidase release, % of total) at 300 nM (human TGR12 (untagged))	degranulation of LAD 2 (beta-hexosaminidase release, % of total) at 3 µM (human TGR12 (untagged))	EC50 in the calcium increasing effect on CHO-TGR12 [1]	maximum activity in the calcium increasing effect (FLIPR), CHO-TGR12, at 0.3 nM [1]	maximum activity in the calcium increasing effect (FLIPR), CHO-TGR12, at 3 nM [1]	maximum activity in the calcium increasing effect (FLIPR), CHO-TGR12, at 30 nM [1]	maximum activity in the calcium increasing effect (FLIPR), CHO-TGR12, at 300 nM [1]	maximum activity in the calcium increasing effect (FLIPR), CHO-TGR12, at 3000 nM [1]	IC50 [2]	other results
Pertussis toxin [PTX]	–	–	–	–	–	–	–	–	–	–	–	–	–	attenuation by pretreatment of phosphorylation of ERK1/2 with ATP (human TGR12): not observed; effect of pretreatment on phosphorylation of ERK1/2 by substance P (human TGR12): attenuated
HSDGIFTDSYSRYRKQMAVKKYLAAVL (peptide, UniProt P18509 132-158, looked up, not fully specified; ends and bridges not checked, domain: PACAP-27) [human PACAP27 (pituitary adenylate cyclase activating polypeptide 27)]	~51 nM	2.6%	19.6%	59.4%	71.1%	69.1%	~93 nM	48 fluorescence intensity	58 fluorescence intensity	939 fluorescence intensity	23000 fluorescence intensity	23700 fluorescence intensity	264 nM	maximum activity in the calcium increasing effect (FLIPR), RBL2H3-TGR12, at 1 nM (human TGR12 (untagged)): 40 fluorescence intensity; maximum activity in the calcium increasing effect (FLIPR), RBL2H3-TGR12, at 10 nM (human TGR12 (untagged)): 29 fluorescence intensity; maximum activity in the calcium increasing effect (FLIPR), RBL2H3-TGR12, at 100 nM (human TGR12 (untagged)): 5300 fluorescence intensity; maximum activity in the calcium increasing effect (FLIPR), RBL2H3-TGR12, at 1 µM (human TGR12 (untagged)): 11500 fluorescence intensity; maximum activity in the calcium increasing effect (FLIPR), RBL2H3-TGR12, at 10 µM (human TGR12 (untagged)): 12700 fluorescence intensity
HSDGIFTDSYSRYRKQMAVKKYLAAVLGKRYKQRVKNK (peptide, UniProt P18509 132-169, looked up, not fully specified; ends and bridges not checked, domain: PACAP-38) [human PACAP38 (pituitary adenylate cyclase activating polypeptide 38)]	~51 nM	7.4%	24.8%	49.4%	65.8%	63.3%	~161 nM	287 fluorescence intensity	410 fluorescence intensity	195 fluorescence intensity	23000 fluorescence intensity	23300 fluorescence intensity	47 nM	degranulation of LAD 2 (beta-hexosaminidase release, % of total) at 1 µM (human TGR12 (untagged)): 68.9%
B1	~105 nM	1.5%	4%	36.7%	63.9%	76.1%	~305 nM	56 fluorescence intensity	60 fluorescence intensity	16 fluorescence intensity	11200 fluorescence intensity	24000 fluorescence intensity	2040 nM	–
